Assay [1] concerns the target NLuc/CXCR4 (genome-edited, HeLa cells) (human (endogenous in HeLa), UniProt P61073 1-352). As to the kind of experiment: FRET or BRET. For orientation: Bioluminescence resonance energy transfer reports proximity on the nanometre scale.
The target in assay [2] is NLuc/CXCR4 (genome-edited, HEK293 cells) (human (endogenous in HEK293), UniProt P61073 1-352). Briefly: FRET or BRET.
Sequence of NLuc/CXCR4 (genome-edited, HEK293 cells) (P61073 whole entry): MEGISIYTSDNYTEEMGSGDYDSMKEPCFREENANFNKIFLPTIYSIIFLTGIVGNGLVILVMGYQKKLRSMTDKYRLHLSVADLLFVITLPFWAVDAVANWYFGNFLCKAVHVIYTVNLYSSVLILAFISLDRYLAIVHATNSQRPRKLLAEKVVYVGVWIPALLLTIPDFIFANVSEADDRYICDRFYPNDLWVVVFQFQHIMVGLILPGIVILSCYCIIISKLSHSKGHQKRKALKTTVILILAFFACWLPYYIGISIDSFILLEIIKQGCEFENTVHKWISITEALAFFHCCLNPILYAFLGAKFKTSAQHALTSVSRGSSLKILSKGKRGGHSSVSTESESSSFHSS

Sequence of NLuc/CXCR4 (genome-edited, HeLa cells) (P61073 whole entry): as above

B1: 24Leu-CXCL17 (ligand)
chain: LNPGVARGHRDRGQASRRWLQEGGQECECKDWFLRAPRRKFMTVSGLPKKQCPCDHFKGNVKKTRHQRHHRKPNKHSRACQQFLKQCQLRSFALPL
On to B1, for which the pKi (in general, the negative decadic logarithm of the Ki, by convention in mol/L) was determined as 6.15 ± 0.27 in assay [1] and 6.14 ± 0.3 in assay [2].

These data come from article doi:10.1101/2021.07.05.451109 (bioRxiv, 2021).
